This note sets out measurements from the supplement of paper PMC9170038.

This series concerns MS2 coat protein. In words: apparent KD of MS2 coat protein; designed switch direction (-1 OFF switch, 1 ON switch): 1; higher = weaker reporter binding. An outline of the steps: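 Each step of the titration lasted 0.8–1.5 h at the lowest concentration and 10–20 min at the highest. The protein, SNAP-549-labelled MS2 coat protein, went from 0.7 or 1.5 nM doubling to 3 µM over RNA switches transcribed on Illumina chips by stalled E. coli RNA polymerase. Normalised cluster fluorescence was curve-fitted, and the per-design median over clusters is given as apparent KD.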

Setting [1] is: input ligand: microRNA oligo, concentration not stated.
[2] abbreviates: Eterna round: R95, input ligand: FMN 200 uM.
Setting [3] is: Eterna round: R95, input ligand: microRNA oligo, concentration not stated.
The mark [4] stands for this setting: Eterna round: R95, input ligand: none.

Regarding “CGUCGUUUGCUAGGAUAUCGCUAUACAUGAGGAUCACCCAUGUUUACCACGCUGGUUUUUCAUACCGAGAAGGAUUCUGAUGUU [salish99_SSNG02_r04_018] (Eterna round: R96, puzzle: Same State NG 2)”, the “apparent KD of MS2 coat protein” value stood at 24 nM (input ligand: FMN 200 uM), 28.7 nM under setting [1] and 34.1 nM (input ligand: none).

As to “AAUUGUUUCUGAGGAUAUCAGUAGUAUGCCAAUUGAGAAGGCAGUACAUGAGGAUCACCCAUGUUAUGGUUUGAUAGAAUGAUA [JR_SSNG1_Sub001] (Eterna round: R96, puzzle: Same State NG 1)”, the “apparent KD of MS2 coat protein” value is, setting by setting: (input ligand: FMN 200 uM) 74.8 nM; under setting [1], 51.2 nM; (input ligand: none) 54.1 nM.

As to “GGGAGAGACGGAGGAUAUGGUGGGAGAUAGGGACUAGAAGGUUGGACAUGAGAAUCGAACAUGAGGAUCACCCAUGUUGGGAGG [iteri-3] (Eterna round: R96, puzzle: Same State NG 1)”, the “apparent KD of MS2 coat protein” value (input ligand: FMN 200 uM) was determined as 51 nM, the “apparent KD of MS2 coat protein” value under setting [1] was 28.3 nM and the “apparent KD of MS2 coat protein” value (input ligand: none) turned out to be 63.2 nM.

As to “AACCUACAUGAGGAUCACCCAUGUGUCUAAGGCACAGGAUAUCGACAGGCAAGACACCUGCGAGAAGGGUGACCUA [Diatater] (puzzle: Same State 1)”, the “apparent KD of MS2 coat protein” value under setting [2] was found to be 56.2 nM, the “apparent KD of MS2 coat protein” value under setting [3] worked out at 24 nM and the “apparent KD of MS2 coat protein” value under setting [4] is 48.7 nM.

Take “UUGAAGAAUAAAGGAUAUUGAAUACAUAUGUUUAACAUGAGGAUCACCCAUGUGGGUUGCGGUAUCGAGAAGGUUAAUUACUAG [Mat - Same State NG 2 - JL mod - D11] (Eterna round: R96, puzzle: Same State NG 2)”: the “apparent KD of MS2 coat protein” value (input ligand: FMN 200 uM) amounted to 151 nM, the “apparent KD of MS2 coat protein” value under setting [1] worked out at 124 nM and the “apparent KD of MS2 coat protein” value (input ligand: none) turned out to be 139 nM.

As for “UGCUAUCGAAAACGAUAGCUAAAGUUUGUACAUGAGGAUCACCCAUGUUGUACAAGCUUUUUGCUCGUCUUAAAUAA [JL SD Zipper 16] (Eterna round: R96, puzzle: Sensor for hsa-mir-208a)”, the “apparent KD of MS2 coat protein” value is, setting by setting: (input ligand: FMN 200 uM) 67.1 nM; under setting [1], 15.2 nM; (input ligand: none) 62.4 nM.

As to “UUCGAGUAGCAAGGAUAUCUUAUUUAGAUUUUAAGAGAAGGUGCUUCACAGCUACAUGAGGAUCACCCAUGUCUUUCUUCUUAU [JR_SSNG1_Sub065] (Eterna round: R96, puzzle: Same State NG 1)”, the “apparent KD of MS2 coat protein” value under setting [1] turned out to be 27.3 nM.

As for “UGGCUCAGACGAGGAUAUAUGCGAUCACAUGAGGAUCACCCAUGUCUCGAGCUUCGGCUCGAGGCAUAGAAGGCGUCUGAGCCA [SSNG2/4-A2] (Eterna round: R96, puzzle: Same State NG 2)”, the “apparent KD of MS2 coat protein” value is, setting by setting: (input ligand: FMN 200 uM) 15.8 nM; under setting [1], 28 nM; (input ligand: none) 32.5 nM.

As for “GUACAGAUUAUAGGAUAUCACGUCGUUUAGACGUGAGAAGGAUAAUCCCACAUGAAUAUUAAUACAUGAGGAUCACCCAUGUAC [SSNG1/18-B3] (Eterna round: R96, puzzle: Same State NG 1)”, the “apparent KD of MS2 coat protein” value reads like this: (input ligand: FMN 200 uM) 21.8 nM; under setting [1], 27.7 nM; (input ligand: none) 30.7 nM.

For the sequence “UACAAUCUAUCUGAGGAUAUCAUGAAUAAAACAUGAGGAUCACCCAUGUGCAGGAAAACUGCAUAUGAGAAGGCAGAUAGAUUGU [salish99_ss2_r3_067] (puzzle: Same State 2)”, the “apparent KD of MS2 coat protein” value was determined as 45.9 nM under setting [2], 181 nM under setting [3] and 556 nM under setting [4].

As to “GAGGGACAGACCAACAUGAGGAUCACCCAUGUCCUCGCAGGUCAGGAUAUCCGGAGGUAGACGAAGGAGAAGGGACGGUGAACC [AK SSNG3-V2-38] (Eterna round: R96, puzzle: Same State NG 3)”, the “apparent KD of MS2 coat protein” value reads like this: (input ligand: FMN 200 uM) 893 nM; under setting [1], 251 nM; (input ligand: none) 631 nM.
